Experimental data from article PMC7806596, “Regulation of trehalase activity by multi-site phosphorylation and 14-3-3 interaction” (Scientific Reports, 2021).
One block for each molecule: values may come before it.

Legend:
Bmh1 = Bmh1 (UniProt P29311); test: anti-FLAG co-IP, anti-V5 blot; conditions: reference: wild type
[1] = target: full-length 3xFLAG-tagged Nth1^S83A (S. cerevisiae) (UniProt P32356); test: co-IP; Nth1-3xFLAG precipitated with anti-FLAG M2 magnetic beads, Bmh1-V5 detected by blot; stationary phase cells recovered by dilution in 1% glucose minimal medium (5 min after glucose replenishment); 25 mM Tris-HCl pH 7.5, 150 mM NaCl, 5 mM CaCl2, 0.1% Triton X-100, 4 °C, 1 h
[2] = target: T1, Nth1-Strep phosphorylated in vitro with PKA and CyclinB-Cdk1 (S. cerevisiae, UniProt P32356 1-751, full phosphorylation by Cdk1 (site S66) and partial phosphorylation of the PKA sites by PKA (15 nM or 1.5 nM) in vitro); test: pull-down; called co-IP by the paper; 6xHis-Bmh1 from BL21RP lysate loaded on Chelating Sepharose and washed, mixed 10 min with in vitro phosphorylated Nth1-Strep (200 ng per sample); washed with 25 mM Tris-HCl pH 7.4, 150 mM NaCl, 5 mM CaCl2; bound Nth1-Strep detected by blot (StrepMAB-Classic); conditions: both partners purified
T1 construct: neutral trehalase Nth1, S. cerevisiae, full length, expressed from pASK-Iba3; also called Nth1-Strep-tagged; source: E. coli BL21(DE3)RP, purified (Strep-Tactin II Superflow), phosphorylated in vitro with PKA and cyclin B-Cdk1
T1 sequence (looked up): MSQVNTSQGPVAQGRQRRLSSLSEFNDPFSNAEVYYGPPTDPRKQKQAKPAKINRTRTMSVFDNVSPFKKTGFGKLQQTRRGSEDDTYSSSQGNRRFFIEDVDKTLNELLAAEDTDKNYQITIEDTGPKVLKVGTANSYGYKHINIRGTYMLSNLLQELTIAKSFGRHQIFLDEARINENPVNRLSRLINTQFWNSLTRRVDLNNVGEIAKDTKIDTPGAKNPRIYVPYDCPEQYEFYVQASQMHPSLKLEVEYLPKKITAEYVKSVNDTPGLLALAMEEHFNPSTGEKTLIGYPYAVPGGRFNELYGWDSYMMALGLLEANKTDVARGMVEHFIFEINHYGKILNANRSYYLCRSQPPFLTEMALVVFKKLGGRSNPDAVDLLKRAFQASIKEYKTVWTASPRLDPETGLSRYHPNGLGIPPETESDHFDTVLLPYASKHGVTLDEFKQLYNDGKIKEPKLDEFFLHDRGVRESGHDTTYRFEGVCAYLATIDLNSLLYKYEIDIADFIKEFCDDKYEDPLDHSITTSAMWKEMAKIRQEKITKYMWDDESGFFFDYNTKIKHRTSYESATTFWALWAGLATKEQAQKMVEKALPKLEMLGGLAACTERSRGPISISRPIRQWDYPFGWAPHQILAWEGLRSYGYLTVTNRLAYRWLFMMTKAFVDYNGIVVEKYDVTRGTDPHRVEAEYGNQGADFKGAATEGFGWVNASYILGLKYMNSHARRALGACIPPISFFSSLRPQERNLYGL

[3] = target: T2, recombinant full-length 6xHis-tagged Nth1 phosphorylated in vitro with PKA (S. cerevisiae, UniProt P32356 1-751, fully phosphorylated with 3 nM PKA in vitro); test: phosphatase shielding assay (Phos-tag autoradiograph and mass spectrometry); 1 µM 6xHis-Nth1 phosphorylated with 3 nM PKA in presence or absence of Bmh1 (5:1, Bmh1:Nth1); at 30 min PKA inhibitor and lambda phosphatase (90 U/µl, 1 mM MnCl2) added; conditions: both partners purified
T2 construct: neutral trehalase Nth1, S. cerevisiae, full length, expressed from pET28a; also called 6xHis-Nth1
T2 sequence (looked up): T1 sequence (looked up)

percent of reference (Bmh1; sites S83): < 10%
Molecule: Nth1 (from UniProt P32356) S83A

percent of reference (Bmh1; sites S66): 50%
Molecule: Nth1 (from UniProt P32356) S66A

binding result [2]: binds
binding result [3]: binds
B1: recombinant full-length 6xHis-tagged Bmh1 (natural protein, S. cerevisiae, UniProt P29311 1-267, looked up)
chain: MSTSREDSVYLAKLAEQAERYEEMVENMKTVASSGQELSVEERNLLSVAYKNVIGARRASWRIVSSIEQKEESKEKSEHQVELICSYRSKIETELTKISDDILSVLDSHLIPSATTGESKVFYYKMKGDYHRYLAEFSSGDAREKATNASLEAYKTASEIATTELPPTHPIRLGLALNFSVFYYEIQNSPDKACHLAKQAFDDAIAELDTLSEESYKDSTLIMQLLRDNLTLWTSDMSESGQAEDQQQQQQHQQQQPPAAAEGEAPK
notes: 14-3-3 protein Bmh1, S. cerevisiae, full length, expressed from pET28a; also called 6xHis-Bmh1; Bhm1; source: E. coli BL21(DE3)RP

Further lines, the molecule ahead of its results:

Molecule: Nth1 (from UniProt P32356) S60A
percent of reference (Bmh1; sites S60): 30%

Molecule: V5-tagged Bmh1 (from UniProt P29311 1-267) (natural protein)
bound Bmh1, percent normalised to WT [1]: < 10%
